For the assay, the system named is OVA. The assay is described as follows: OVA-specific serum antibody ELISA, QWT-iscoms with CT or MPL (Example 7). It is filed as in vivo, NMRI mice. As to conditions: 5 μg OVA without adjuvant. As to the method:
Sera were collected 3 weeks after priming and 2 weeks after the booster injection.
Serum antibody determination, including total IgG, and subclasses IgG1 and IgG2a, was carried in out in ELISA as described in example 1.
Background: In an ELISA, binding on a coated surface is turned into a signal by an enzyme label.

B1: OVA alone: ovalbumin, weak model antigen, given without adjuvant (protein, UniProt P01012 2-386, looked up)
Ovalbumin: GSIGAASMEFCFDVFKELKVHHANENIFYCPIAIMSALAMVYLGAKDSTRTQINKVVRFDKLPGFGDSIEAQCGTSVNVHSSLRDILNQITKPNDVYSFSLASRLYAEERYPILPEYLQCVKELYRGGLEPINFQTAADQARELINSWVESQTNGIIRNVLQPSSVDSQTAMVLVNAIVFKGLWEKAFKDEDTQAMPFRVTEQESKPVQMMYQIGLFRVASMASEKMKILELPFASGTMSMLVLLPDEVSGLEQLESIINFEKLTEWTSSNVMEERKIKVYLPRMKMEEKYNLTSVLMAMGITDVFSSSANLSGISSAESLKISQAVHAAHAEINEAGREVVGSAEAGVDAASVSEEFRADHPFLFCIKHIATNAVLFFGRCVSP
With B1, the “serum IgG after booster” value was “low serum levels of IgG”.

Source of the values: patent US12171828B2, “Quil A fraction with low toxicity and use thereof” (Novavax AB, priority 2003, dated 2024).
